Assays:
[1] = test system: DRG neurons, myelin-mediated inhibition of neurite outgrowth; experiment: Neurite outgrowth assay, P3-4 rat DRG neurons, myelin mixed with test protein (Example 10); format: cell-based; details: mixed with CNS myelin, FIGS. 9-11
Experimental: Lab-Tek® culture slides (4 wells) were coated with 0.1 mg/ml poly-D-lysine (Sigma®). CNS myelin alone or mixed with sNogoR310, sNogoR310-Fc fusion protein, mAb 5B10 or control PBS were separately spotted as 3 μl drops. Fluorescent microspheres (Polysciences) were added to the myelin/PBS to allow later identification of the drops (Grandpre et al., Nature 403:439-444 (2000)). Lab-Tek® slides were then rinsed and coated with 10 μg/ml laminin (Gibco™).
Dorsal root ganglions (DRG's) from P3-4 Sprague Dawley rat pups were dissociated with 1 mg/ml collagenase type 1 (Worthington), triturated with fire-polished Pasteur pipettes pre-plated to enrich in neuronal cells and finally plated at 23,000 cells/well on the pre-coated Labtek culture slides. The culture medium was F12 containing 5% heat inactivated donor horse serum, 5% heat inactivated fetal bovine serum and 50 ng/ml mNGF and incubated at 37° C. and 5% CO2 for 6 hours.
Slides were fixed for 20 minutes with 4% paraformaldehyde containing 20% sucrose and stained for the neuronal marker anti beta-III-tubulin (Covance TUJ1) diluted 1:500. As secondary antibody anti-mouse Alexa Fluor® 594 (Molecular Probes) was diluted 1:300 and slides were coverslipped with Gel/Mount™ (Biømeda™). 5× digital images were acquired with OpenLab™ software and analyzed by using the MetaMorph® software for quantification of neurite outgrowth.

[2] = test system: rats with dorsal hemisection of the spinal cord; experiment: Rat spinal cord transection assay (Example 12); format: in vivo; details: intrathecal pump, up to 28 days, FIG. 12
Experimental: Alzet® osmotic pumps were loaded with test solution (sNogoR310-Fc in PBS) made up freshly on the day of use. The loading concentration was calculated to be 5 and 50 μM. Pumps were primed for >40 hours at 37° C. prior to implantation into animals. Female Long Evans rats were given pre-operative analgesia and tranquilizer and anesthetized using isoflurane (3% in O2).
Rats were placed in a stereotaxic frame and the motor cortex exposed for infusion of the tract tracing agent BDA (10,000 MW) bilaterally. Rats then underwent dorsal hemisection of the spinal cord at TS-T6 followed by implantation of the intrathecal catheter and pump system to deliver test compound (n=1 per group).
Rats were allowed to recover and survive up to 28 days after surgery. Behavioral scoring using the BBB system was recorded up to 28 days after induction of injury, just prior to termination of the in-life phase of the study. […]
The Basso-Beattie-Bresnahan (BBB) locomotor rating scale (Basso et al., Neurotrauma 13:343-359 (1996)), the inclined plane test and the inclined grid walking test (Li and Strittmatter, J Neurosci. 23:4219-27 (2003)) were monitored in rats and mice after injury. For the inclined plane test, we measured the maximal angle to which a 50 cm×60 cm board could be angled for 5 sec without the mouse sliding off. […]

[3] = test system: Nogo-66, MAG and myelin action; experiment: Blockade of Nogo-66, MAG and myelin action in vitro
[4] = test system: rats with mid-thoracic dorsal hemisection injury; experiment: Intrathecal sNogoR310-Fc in rats with mid-thoracic dorsal hemisection: axon tracing and histology; format: in vivo, rat
Text: We isolated spinal cord 4 mm rostral to and 4 mm caudal to the lesion site (8 mm long in total) from transgenic mice and embedded it in a glutaraldehyde-polymerized albumin matrix, and cut parasagittally on a vibratome (30 μm thick). We collected transverse sections (50 μm) from the spinal cord 5-7 mm rostral to and 5-7 mm caudal to the injury site. For sNogoR310-Fc injection experiments in rats, the spinal cord extending from 10 mm rostral to 10 mm caudal from the lesion site was cut parasaggitally (50 μm) on a vibrating microtome. Transverse sections were collected from the spinal cord 11-16 mm rostral to and 11-16 mm caudal to the injury site. We incubated the sections with avidin-biotin-peroxidase complex and visualized the BDA tracer by nickel-enhanced diaminobenzidine HRP reaction (Grandpre, Nature 417:547-551 (2002)). We processed some sections for serotonin immunohistochemistry (anti-5-HT antibody) by indirect immunofluorescence. To visualize the lesion area, we double-stained some sections with antibodies directed against GFAP (Sigma®, St. Louis, Mo.). We mounted, dehydrated and covered the sections with mounting medium.
We fused the ligand binding domain (27-310) of rat Nogo receptor-1 to the rat IgG1 Fc domain to promote stability and purification. We purified protein from stably transfected CHO cells. This protein blocks Nogo-66, MAG and myelin action in vitro, as shown previously for mouse sNogoR310-Myc His (Fournier et al., J Neurosci. 22:8876-8883 (2002); Liu et al., Science 297:1190-1193 (2002)). We delived sNogoR310-Fc protein intrathecally to rats with a mid-thoracic dorsal hemisection injury through an osmotic minipump. During a four-week survival period after injury, 1.2 mg sNogoR310-Fc protein was locally administered in each rat. In rats receiving the vehicle treatment (1.2 mg rat IgG), sections rostral to hemisection display the tightly bundled prominent dorsal CST and very few ectopic BDA-labeled CST fibers above the lesion site. […] Numerous ectopic fibers sprouting from the BDA-labeled CST are observed from transverse and parasagittal sections. In some cases, projections cross from the dCST area near the midline to the circumference of the cord, becoming intermingled with the dorsolateral CST. The sprouting axons extend though gray matter to a greater extent than white matter.
(§1) We deeply anaesthetized female Sprague-Dawley rats (190-250 g) and conducted laminectomies at spinal levels of T6-7, exposing the spinal cord. We cut the dorsal half of the spinal cord with a 30-gauge needle and a pair of microscissors to sever the dorsal parts of CSGT tracts, and assured the depth of the lesion (1.8 mm) by passing the sharp part of a number 11 blade across the dorsal half of the cord (Grandpre et al., Nature 417:547-551 (2002)). An osmotic minipump (Alzet® 2ML4, 2 ml volume, 2.5 μl/h, 28 day delivery), which was filled with 1.2 mg rat IgG in PBS or 1.2 mg sNogoR310-Fc fusion protein in PBS, was sutured to muscles under the skin on the back of the animals. A catheter connected to the outlet of the minipump was inserted into the intrathecal space of the spinal cord at the T7-8 level through a small hole in the dura.
Fourteen days after hemisection, a burr hole was made on each side of the skull overlying the sensorimotor cortex of the lower limbs to trace CST fibers. The anterograde neuronal tracer BDA (10% in PBS, 3.5 μl per cortex) was applied at seven injection sites at a depth of 1.5 mm from dura on each side (Grandpre et al., Nature 417:547-551 (2002)). For rubrospinal tract tracing in rats, the tracer BDA (1 μl; MW 10,000; 10% in PBS) was injected into red nucleus on the left side (5.8 mm posterior to bregma, 0.7 mm lateral, 7.0 mm ventral to the skull surface). Two weeks after BDA injection, these animals were perfused with PBS, followed by 4% paraformaldehyde, and tissue was collected for histology.

[5] = test system: rats with mid-thoracic dorsal hemisection injury; experiment: Intrathecal sNogoR310-Fc in rats with dorsal hemisection: behavioral tests; format: in vivo, rat
Text: The Basso-Beattie-Bresnahan (BBB) locomotor rating scale (Basso et al., Neurotrauma 13:343-359 (1996)), the inclined plane test and the inclined grid walking test (Li and Strittmatter, J Neurosci. 23:4219-27 (2003)) were monitored in rats and mice after injury. For the inclined plane test, we measured the maximal angle to which a 50 cm×60 cm board could be angled for 5 sec without the mouse sliding off. For inclined grid walking, the mice were trained to climb a wire grid (35 cm long with 2.54 cm squares) at a slope of 45 degrees. The number of instances in which the hindpaw dropped below the grid plane was scored for each excursion from bottom to top. For the rat behavioral testing, BBB locomotor scale, grid walking and footprint analysis were performed. For grid walking, the rats were trained to walk on a wire grid (70 cm long with 2.54 an squares), and the number of instances in which the hindpaw dropped below the grid plane was counted. For footprint analysis, the walking patterns of rat hindpaws were recorded with ink during a continuous locomotion across a 90 cm runway, and stride length on each side and stride width were calculated (Metz et al., Brain Res. 883:165-177 (2000)). All of these behavioral tests were performed by at least two individuals. Throughout the surgery, behavioral testing and histologic analysis, researchers were blind to the identity of the compound in the minipump.
as §1, with “A catheter connected to the outlet of the minipump was inserted into the intrathecal space of the spinal cord at the T7-8 level through a small hole in the dura.” left out

B1: sNogoR310-Fc: fusion protein comprising amino acids 26-310 of rat Nogo receptor-1 and a rat Fc fragment (protein)
chain: PCPGACVCYNEPKVTTSRPQQGLQAVPAGIPASSQRIFLHGNRISYVPAASFQSCRNLTILWLHSNALAGIDAAAFTGLTLLEQLDLSDNAQLRVVDPTTFRGLGHLHTLHLDRCGLQELGPGLFRGLAALQYLYLQDNNLQALPDNTFRDLGNLTHLFLHGNRIPSVPEHAFRGLHSLDRLLLHQNHVARVHPHAFRDLGRLMTLYLFANNLSMLPAEVLVPLRSLQYLRLNDNPWVCDCRARPLWAWLQKFRGSSSGVPSNLPQRLAGRDLKRLATSDLEGCA
modifications: left off: a dimerising Fc or GST
notes: fusion protein comprising amino acids 26-310 of rat Nogo receptor-1 and a rat Fc fragment
protection of DRG neurons from myelin-mediated inhibition of neurite outgrowth [1]: protected
functional recovery (BBB score) [2]: promoted functional recovery
blocks Nogo-66, MAG and myelin action in vitro [3]: blocks
BDA-labeled axons from sagittal sections ([4]; 1-2 mm caudal to lesion, each rat): approximately 20
number of sprouts ([4]; 1-10 mm caudal): ~50 sprouts/rat
traced axons from sagittal sections ([4]; 7-8 mm distal to lesion, each rat): ~15
serotonin fibers relative to control group ([4]; 11-15 mm below the lesion): twice as numerous
density of serotonergic fibers vs vehicle ([4]; 11-15 mm rostral to lesion): similar
total collateral length of each sprout relative to NEP 1-40-treated animals ([4]; distal spinal cord): twice as great
ectopic sprouting fibers adjacent to the dCST ([4]; rostral to lesion, 1.2 mg intrathecal over four weeks): greater increase
average number of BDA-labeled CST fibers relative to vehicle-treated rats ([4]; transverse sections 11-15 mm caudal to hemisection): approximately 20 fold
BDA-labeled RST fibers ([4]; transverse sections 11-15 mm distal to SCI): many BDA-labeled RST fibers
grid walking errors ([5]; 2-4 weeks post-injury, on average): 4-7 /session
locomotor BBB score ([5]; 2-4 weeks post-trauma): continues to improve
animals with consistent forelimb-hindlimb coordination and parallel paw position ([5]; 4 weeks after injury, 9 treated animals): 9

— patent US9228015B2, “Nogo receptor antagonists and methods of increasing neurite outgrowth” (Biogen Idec MA Inc., priority 2006, dated 2016)
